Consider one substance from IntAct's records for PubMed 38825040.

In this assay the target is lg3bp_human LGALS3BP (UniProt Q08380).
lg3bp_human LGALS3BP, sequence (Q08380 whole entry): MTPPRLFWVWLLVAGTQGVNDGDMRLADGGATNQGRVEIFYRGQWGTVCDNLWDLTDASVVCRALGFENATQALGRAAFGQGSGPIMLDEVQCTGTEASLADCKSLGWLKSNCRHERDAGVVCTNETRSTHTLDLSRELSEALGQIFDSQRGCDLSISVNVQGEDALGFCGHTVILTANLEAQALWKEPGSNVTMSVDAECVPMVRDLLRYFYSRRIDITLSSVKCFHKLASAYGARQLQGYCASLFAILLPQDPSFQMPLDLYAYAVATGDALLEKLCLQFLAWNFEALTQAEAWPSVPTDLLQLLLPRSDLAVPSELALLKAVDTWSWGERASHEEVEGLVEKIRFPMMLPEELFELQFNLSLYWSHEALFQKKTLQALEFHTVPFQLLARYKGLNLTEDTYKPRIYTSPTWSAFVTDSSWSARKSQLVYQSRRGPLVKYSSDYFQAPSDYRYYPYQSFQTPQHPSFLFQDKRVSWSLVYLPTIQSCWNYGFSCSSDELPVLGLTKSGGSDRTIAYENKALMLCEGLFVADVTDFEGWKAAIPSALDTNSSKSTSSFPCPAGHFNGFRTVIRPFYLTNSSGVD

Extracellular sulfatase Sulf-2 (Homo sapiens), Q8IWU5 S583A, sequence (Q8IWU5 whole entry S583A): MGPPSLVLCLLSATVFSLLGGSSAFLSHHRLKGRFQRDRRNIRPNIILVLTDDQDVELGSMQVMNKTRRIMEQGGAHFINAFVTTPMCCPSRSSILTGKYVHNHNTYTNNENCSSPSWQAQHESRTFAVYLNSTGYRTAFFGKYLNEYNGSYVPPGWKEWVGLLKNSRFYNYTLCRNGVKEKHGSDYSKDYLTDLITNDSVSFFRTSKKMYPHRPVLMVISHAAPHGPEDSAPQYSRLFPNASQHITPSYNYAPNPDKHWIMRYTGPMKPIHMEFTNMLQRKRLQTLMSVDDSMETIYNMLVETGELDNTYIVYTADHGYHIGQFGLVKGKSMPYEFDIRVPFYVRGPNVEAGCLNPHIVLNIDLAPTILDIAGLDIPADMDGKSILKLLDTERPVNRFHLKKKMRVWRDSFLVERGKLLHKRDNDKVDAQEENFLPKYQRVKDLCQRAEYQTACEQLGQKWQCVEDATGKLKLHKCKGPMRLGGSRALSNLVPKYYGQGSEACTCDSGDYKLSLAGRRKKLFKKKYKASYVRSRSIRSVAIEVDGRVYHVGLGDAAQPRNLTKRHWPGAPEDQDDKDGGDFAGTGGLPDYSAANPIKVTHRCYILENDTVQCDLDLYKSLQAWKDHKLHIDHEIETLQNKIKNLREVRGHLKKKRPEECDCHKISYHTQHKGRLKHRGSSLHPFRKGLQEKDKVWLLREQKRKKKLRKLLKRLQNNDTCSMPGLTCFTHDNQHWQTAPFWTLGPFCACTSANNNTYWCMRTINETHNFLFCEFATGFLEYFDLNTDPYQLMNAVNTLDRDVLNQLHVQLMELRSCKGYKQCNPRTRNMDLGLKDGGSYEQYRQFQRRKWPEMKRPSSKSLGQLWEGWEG

“Extracellular sulfatase Sulf-2 (Homo sapiens), Q8IWU5 S583A”: the “effect of a mutation on the interaction” value is listed as “increasing interaction strength”.
